Assay results as given in publication PMC10397247.
Blank lines part the entries; values can stand above or below the binder they belong to.

Key:
Experiment in all cases: two-hybrid library CCNG1;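 note: natural log of median RNA to DNA barcode read ratio; higher means stronger binding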
4H363-bN = molecular target: T1, 4H363-bN
T1 chain: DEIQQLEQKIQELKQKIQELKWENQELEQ

4H470-bN = molecular target: T2, 4H470-bN
T2 chain: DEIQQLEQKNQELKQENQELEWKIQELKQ

4H3961-bN = molecular target: T3, 4H3961-bN
T3 chain: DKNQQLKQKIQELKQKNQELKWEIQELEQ

4H3907-bN = molecular target: T4, 4H3907-bN
T4 chain: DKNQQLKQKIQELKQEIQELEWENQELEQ

P5mSN = molecular target: T5, P5mSN
T5 chain: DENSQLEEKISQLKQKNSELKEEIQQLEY

P7mSN = molecular target: T6, P7mSN
T6 chain: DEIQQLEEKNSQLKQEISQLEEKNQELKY

P6mSN = molecular target: T7, P6mSN
T7 chain: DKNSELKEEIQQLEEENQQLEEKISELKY

P8mSN = molecular target: T8, P8mSN
T8 chain: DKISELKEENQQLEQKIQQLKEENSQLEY

4H570-bN = molecular target: T9, 4H570-bN
T9 chain: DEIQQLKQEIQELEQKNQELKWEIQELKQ

4H3858-bN = molecular target: T10, 4H3858-bN
T10 chain: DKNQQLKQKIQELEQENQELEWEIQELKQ

4H850-bN = molecular target: T11, 4H850-bN
T11 chain: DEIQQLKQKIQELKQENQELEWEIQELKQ

4H3974-bN = molecular target: T12, 4H3974-bN
T12 chain: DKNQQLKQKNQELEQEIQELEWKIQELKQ

O15 = molecular target: T13, O15
T13 chain: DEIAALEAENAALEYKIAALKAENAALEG

4H3631-bA = molecular target: T14, 4H3631-bA
T14 chain: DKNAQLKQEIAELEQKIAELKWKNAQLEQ

4H953-bA = molecular target: T15, 4H953-bA
T15 chain: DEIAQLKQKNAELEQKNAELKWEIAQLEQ

4H906-bA = molecular target: T16, 4H906-bA
T16 chain: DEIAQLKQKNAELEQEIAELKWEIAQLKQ

4H3974-bA = molecular target: T17, 4H3974-bA
T17 chain: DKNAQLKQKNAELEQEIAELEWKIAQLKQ

4H1985-bA = molecular target: T18, 4H1985-bA
T18 chain: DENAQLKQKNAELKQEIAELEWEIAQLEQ

4H3462-bA = molecular target: T19, 4H3462-bA
T19 chain: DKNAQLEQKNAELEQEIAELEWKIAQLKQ

4H3277-bA = molecular target: T20, 4H3277-bA
T20 chain: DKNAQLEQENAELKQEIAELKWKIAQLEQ

4H3162-bA = molecular target: T21, 4H3162-bA
T21 chain: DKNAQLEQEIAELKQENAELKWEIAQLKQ

4H3613-bA = molecular target: T22, 4H3613-bA
T22 chain: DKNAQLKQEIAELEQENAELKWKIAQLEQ

4H626-bA = molecular target: T23, 4H626-bA
T23 chain: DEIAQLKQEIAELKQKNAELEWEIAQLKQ

4H619-bA = molecular target: T24, 4H619-bA
T24 chain: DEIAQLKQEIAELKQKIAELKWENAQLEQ

4H584-bA = molecular target: T25, 4H584-bA
T25 chain: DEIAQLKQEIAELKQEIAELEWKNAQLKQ

4H3926-bA = molecular target: T26, 4H3926-bA
T26 chain: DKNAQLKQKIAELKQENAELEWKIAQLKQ

4H3638-bA = molecular target: T27, 4H3638-bA
T27 chain: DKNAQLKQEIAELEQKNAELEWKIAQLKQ

4H570-bH = molecular target: T28, 4H570-bH
T28 chain: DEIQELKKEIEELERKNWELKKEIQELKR

4H570-bA = molecular target: T29, 4H570-bA
T29 chain: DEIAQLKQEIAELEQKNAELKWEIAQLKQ

4H3628-bA = molecular target: T30, 4H3628-bA
T30 chain: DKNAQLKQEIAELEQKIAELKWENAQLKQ

4H3414-bA = molecular target: T31, 4H3414-bA
T31 chain: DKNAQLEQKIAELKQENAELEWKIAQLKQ

O8-bN = molecular target: T32, O8-bN
T32 chain: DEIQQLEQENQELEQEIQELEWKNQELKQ

4H3175-bA = molecular target: T33, 4H3175-bA
T33 chain: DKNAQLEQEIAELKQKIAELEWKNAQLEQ

4H591-bA = molecular target: T34, 4H591-bA
T34 chain: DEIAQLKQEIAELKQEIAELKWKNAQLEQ

4H850-bA = molecular target: T35, 4H850-bA
T35 chain: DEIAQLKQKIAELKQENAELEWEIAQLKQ

4H3858-bA = molecular target: T36, 4H3858-bA
T36 chain: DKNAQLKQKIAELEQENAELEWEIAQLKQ

4H3817-bA = molecular target: T37, 4H3817-bA
T37 chain: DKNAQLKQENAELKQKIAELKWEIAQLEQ

4H3497-bA = molecular target: T38, 4H3497-bA
T38 chain: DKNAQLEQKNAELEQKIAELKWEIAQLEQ

4H3172-bA = molecular target: T39, 4H3172-bA
T39 chain: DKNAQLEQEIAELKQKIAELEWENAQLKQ

4H3298-bA = molecular target: T40, 4H3298-bA
T40 chain: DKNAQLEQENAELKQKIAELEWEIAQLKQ

4H3129-bA = molecular target: T41, 4H3129-bA
T41 chain: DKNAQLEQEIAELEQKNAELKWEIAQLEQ

4H1899-bA = molecular target: T42, 4H1899-bA
T42 chain: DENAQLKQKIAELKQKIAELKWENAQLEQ

4H2586-bN = molecular target: T43, 4H2586-bN
T43 chain: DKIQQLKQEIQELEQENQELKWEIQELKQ

4H4038-bH = molecular target: T44, 4H4038-bH
T44 chain: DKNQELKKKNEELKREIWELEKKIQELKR

4H3961-bH = molecular target: T45, 4H3961-bH
T45 chain: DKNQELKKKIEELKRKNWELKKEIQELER

4H470-bH = molecular target: T46, 4H470-bH
T46 chain: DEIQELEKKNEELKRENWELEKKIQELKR

4H3907-bH = molecular target: T47, 4H3907-bH
T47 chain: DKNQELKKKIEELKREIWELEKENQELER

P7A = molecular target: T48, P7A
T48 chain: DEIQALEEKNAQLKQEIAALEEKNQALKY

P6A = molecular target: T49, P6A
T49 chain: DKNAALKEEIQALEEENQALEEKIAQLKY

P9A = molecular target: T50, P9A
T50 chain: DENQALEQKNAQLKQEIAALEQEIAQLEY

P5A = molecular target: T51, P5A
T51 chain: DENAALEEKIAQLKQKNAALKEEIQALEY

P4A = molecular target: T52, P4A
T52 chain: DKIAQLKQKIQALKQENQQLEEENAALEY

P8A = molecular target: T53, P8A
T53 chain: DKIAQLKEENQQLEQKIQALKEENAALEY

O2-bS = molecular target: T54, O2-bS
T54 chain: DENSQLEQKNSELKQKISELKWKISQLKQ

O8-bS = molecular target: T55, O8-bS
T55 chain: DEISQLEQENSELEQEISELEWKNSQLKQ

O3-bS = molecular target: T56, O3-bS
T56 chain: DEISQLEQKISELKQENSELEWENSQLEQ

O7-bS = molecular target: T57, O7-bS
T57 chain: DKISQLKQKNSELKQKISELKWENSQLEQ

O16-bS = molecular target: T58, O16-bS
T58 chain: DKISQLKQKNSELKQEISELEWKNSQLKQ

O4-bS = molecular target: T59, O4-bS
T59 chain: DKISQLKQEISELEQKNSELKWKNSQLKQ

O6-bS = molecular target: T60, O6-bS
T60 chain: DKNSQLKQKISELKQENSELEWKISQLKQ

O5-bS = molecular target: T61, O5-bS
T61 chain: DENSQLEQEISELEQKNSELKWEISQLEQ

Binder: DKNQQLKQKIQELEQENQELEWEIQELKQ [4H3858-bN]
interaction score (4H570-bN): 0.143
interaction score (4H3858-bN): -0.115
interaction score (4H850-bN): -1.15
interaction score (4H3974-bN): -1.21
interaction score (O15): -1.67

Binder: DENAQLKQKNAELKQEIAELEWEIAQLEQ [4H1985-bA]
interaction score (4H3631-bA): -1.21
interaction score (4H953-bA): -1.8
interaction score (4H906-bA): -1.08
interaction score (4H3974-bA): -0.265
interaction score (4H1985-bA): -0.898
interaction score (4H3462-bA): -0.708
interaction score (4H3277-bA): -0.983
interaction score (4H3162-bA): -1.66
interaction score (4H3613-bA): -1.14
interaction score (4H626-bA): -1.19
interaction score (4H619-bA): -0.916
interaction score (4H584-bA): -1.42
interaction score (4H3926-bA): -1.07
interaction score (4H3638-bA): -0.944
interaction score (4H570-bH): -0.714
interaction score (4H570-bA): -1.97
interaction score (4H3628-bA): -1.35
interaction score (4H3414-bA): -1.09
interaction score (O8-bN): -2.01
interaction score (4H3175-bA): -1.53
interaction score (4H591-bA): -1.46
interaction score (4H850-bA): -1.45
interaction score (4H3858-bA): -1.31
interaction score (4H3817-bA): -0.287
interaction score (4H3497-bA): -1.03
interaction score (4H3172-bA): -0.781
interaction score (4H3298-bA): -0.906
interaction score (4H3129-bA): -1.14

Binder: DENAQLKQKIAELKQKIAELKWENAQLEQ [4H1899-bA]
interaction score (4H906-bA): -0.765
interaction score (4H3974-bA): -0.528
interaction score (4H1899-bA): -0.612
interaction score (4H1985-bA): 0.619
interaction score (4H3462-bA): -0.31
interaction score (4H3277-bA): -1.41
interaction score (4H3162-bA): -1.28
interaction score (4H2586-bN): -1.99
interaction score (4H3613-bA): -1.23
interaction score (4H626-bA): -1.38
interaction score (4H3926-bA): -1.03
interaction score (4H570-bA): 0.517
interaction score (4H3628-bA): 0.582
interaction score (4H3175-bA): -1.03
interaction score (4H591-bA): -1.45
interaction score (4H850-bA): -0.973
interaction score (4H3858-bA): -0.565
interaction score (4H3817-bA): -0.216
interaction score (4H3497-bA): -0.482
interaction score (4H3298-bA): -0.142

Binder: DKNQELKKKNEELKREIWELEKKIQELKR [4H4038-bH]
interaction score (4H4038-bH): 0.656

Further lines, results first:

interaction score (4H363-bN): 0.903
interaction score (4H470-bN): -0.702
interaction score (4H3961-bN): -0.162
interaction score (4H3907-bN): 0.321
Binder: DEIQQLEQKIQELKQKIQELKWENQELEQ [4H363-bN]

interaction score (P5mSN): -1.4
interaction score (P7mSN): -0.763
interaction score (P6mSN): 0.0393
interaction score (P8mSN): -0.632
Binder: DENSQLEEKISQLKQKNSELKEEIQQLEY [P5mSN]

interaction score (4H3961-bH): -0.402
interaction score (4H470-bH): -0.458
interaction score (4H3907-bH): 0.462
interaction score (4H4038-bH): -0.272
Binder: DKNQELKKKIEELKREIWELEKENQELER [4H3907-bH]

interaction score (P7A): -2.13
interaction score (P6A): -1.35
interaction score (P9A): -1.08
interaction score (P5A): -2.12
interaction score (P4A): -2.18
interaction score (P8A): -1.42
Binder: DKIAQLKQKIQALKQENQQLEEENAALEY [P4A]

interaction score (O2-bS): -0.368
interaction score (O8-bS): -1.97
interaction score (O3-bS): -1.15
interaction score (O7-bS): -0.709
interaction score (O16-bS): -1.23
interaction score (O4-bS): -0.194
interaction score (O6-bS): -0.0299
interaction score (O5-bS): -3.22
Binder: DKISQLKQKNSELKQEISELEWKNSQLKQ [O16-bS]
